Assay results published in article PMC10842222.

Biological target: CRM1 (UniProt O14980)
Assay: co-immunoprecipitation, immunoblot
Conditions: reference: ALKBH5 WT, EGF-treated; sites Y71

With “ALKBH5 (from UniProt Q6P6C2) ALKBH5 Y71F, EGF-treated” the “binding against the reference” value was “stronger”.
